Experimental data taken from paper PMC4666372 (Nucleic Acids Research, 2015).

Target: T1, His-tagged TopA67 (N-terminal region of TopA, 67 kDa, residues 1-597) (E. coli, UniProt P06612 1-597)
T1 construct: DNA topoisomerase I (TopA) of E. coli, residues 1-597; source: E. coli BL21(DE3), 1 mM IPTG 3 h 37°C, purified (Ni-NTA agarose); not shown: His-tag, N-terminal, kept
T1 sequence (looked up): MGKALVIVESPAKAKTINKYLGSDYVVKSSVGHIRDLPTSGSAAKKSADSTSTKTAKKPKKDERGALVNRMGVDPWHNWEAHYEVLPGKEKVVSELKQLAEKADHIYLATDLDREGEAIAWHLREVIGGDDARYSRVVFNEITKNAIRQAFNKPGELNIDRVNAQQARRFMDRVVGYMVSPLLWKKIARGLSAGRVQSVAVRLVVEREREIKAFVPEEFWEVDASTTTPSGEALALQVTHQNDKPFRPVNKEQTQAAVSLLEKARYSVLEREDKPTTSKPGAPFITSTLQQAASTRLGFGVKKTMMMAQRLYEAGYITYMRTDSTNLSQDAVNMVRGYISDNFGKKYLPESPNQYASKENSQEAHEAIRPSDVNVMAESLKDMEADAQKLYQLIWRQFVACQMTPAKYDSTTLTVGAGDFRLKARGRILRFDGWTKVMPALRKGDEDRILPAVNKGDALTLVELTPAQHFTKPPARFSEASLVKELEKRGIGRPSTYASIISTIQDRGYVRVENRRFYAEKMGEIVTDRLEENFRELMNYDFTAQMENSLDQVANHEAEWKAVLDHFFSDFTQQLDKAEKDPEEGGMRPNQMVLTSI
Assay: co-IP; purified PrS-TopAI and TopA, TopA67 or TopA14 at a molar ratio of 1:5 in buffer A (20 mM Tris-HCl pH 8.0, 150 mM NaCl), in the absence of DNA; anti-protein S antiserum, protein G agarose, 4°C; western blot with anti-His antibody
Settings: both partners purified

B1: PrS-TopAI (N-terminal domain of Protein S fused to TopAI, His-tagged) (natural protein)
chain: not shown
notes: also called PrS-YjhX; YjhX
binding result: binds
